Paper PMC8184850, “Cryo-EM structure of TFIIH/Rad4–Rad23–Rad33 in damaged DNA opening in nucleotide excision repair” (Nature Communications, 2021)

What was measured:
Conditions in all cases: both partners purified
[1] = target: T1, Rad4–Rad23–Rad33 complex (yeast, UniProt P14736 1-754; P32628 1-398; Q04231 1-177); test: cross-linking; XL-MS: TFIIH/Rad4–Rad23–Rad33 assembled on −24/+24 AAF-DNA, 1 mg/mL in 20 mM HEPES pH 7.6, 300 mM potassium acetate, 5% glycerol, 5 mM DTT; 6 mM DSBU on ice 2 h; MeroX, FDR <1%
T1 construct: Rad4 (XPC homologue), yeast; Rad23 (RAD23B homologue), yeast; Rad33 (CETN2 homologue), yeast; plasmid pETDuet-RAD33; also called Rad4–23–33; yeast homologue of XPC–RAD23B–CETN2; copies: + +
T1 sequence 1: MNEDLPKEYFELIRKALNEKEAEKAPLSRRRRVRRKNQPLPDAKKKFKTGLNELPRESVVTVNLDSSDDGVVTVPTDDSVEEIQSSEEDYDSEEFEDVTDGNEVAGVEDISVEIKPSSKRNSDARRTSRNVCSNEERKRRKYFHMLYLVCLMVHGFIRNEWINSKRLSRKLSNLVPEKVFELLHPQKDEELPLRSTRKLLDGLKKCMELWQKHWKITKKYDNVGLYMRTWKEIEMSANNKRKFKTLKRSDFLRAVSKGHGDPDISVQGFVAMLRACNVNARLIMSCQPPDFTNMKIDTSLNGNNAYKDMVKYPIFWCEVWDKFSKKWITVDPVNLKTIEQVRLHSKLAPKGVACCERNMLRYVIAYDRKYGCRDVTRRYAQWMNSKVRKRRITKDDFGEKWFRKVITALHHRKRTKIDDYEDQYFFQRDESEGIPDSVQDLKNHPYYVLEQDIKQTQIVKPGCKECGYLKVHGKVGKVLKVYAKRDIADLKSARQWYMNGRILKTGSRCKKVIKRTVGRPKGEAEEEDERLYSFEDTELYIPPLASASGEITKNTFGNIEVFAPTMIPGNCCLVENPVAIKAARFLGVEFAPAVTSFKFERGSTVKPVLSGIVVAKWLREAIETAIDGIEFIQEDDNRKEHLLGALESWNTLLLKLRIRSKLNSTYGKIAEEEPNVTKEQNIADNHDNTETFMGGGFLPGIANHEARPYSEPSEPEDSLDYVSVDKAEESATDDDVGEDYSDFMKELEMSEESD
T1 sequence 2: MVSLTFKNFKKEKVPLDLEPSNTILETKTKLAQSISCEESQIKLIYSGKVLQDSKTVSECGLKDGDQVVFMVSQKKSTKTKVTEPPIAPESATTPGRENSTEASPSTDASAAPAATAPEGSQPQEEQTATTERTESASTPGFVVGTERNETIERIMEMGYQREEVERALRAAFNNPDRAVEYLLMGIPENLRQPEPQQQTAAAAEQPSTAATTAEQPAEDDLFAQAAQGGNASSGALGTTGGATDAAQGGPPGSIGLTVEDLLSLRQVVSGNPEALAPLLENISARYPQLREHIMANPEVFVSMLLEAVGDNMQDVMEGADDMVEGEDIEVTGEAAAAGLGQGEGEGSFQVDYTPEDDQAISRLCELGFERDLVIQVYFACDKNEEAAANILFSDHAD
T1 sequence 3: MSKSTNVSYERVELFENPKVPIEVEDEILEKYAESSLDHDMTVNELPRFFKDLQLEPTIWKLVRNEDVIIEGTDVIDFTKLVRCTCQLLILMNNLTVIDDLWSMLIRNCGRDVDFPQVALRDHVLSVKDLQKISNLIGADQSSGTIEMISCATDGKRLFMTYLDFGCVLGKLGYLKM

[2] = target: T2, Rad3 (yeast, UniProt P06839 1-778); test: cryo-EM structure; coreTFIIH and Rad4–Rad23–Rad33 on −24*/+24 AAF-DNA with ATP, glycerol gradient with glutaraldehyde; Map 1 3.86 Å (TFIIH), Map 2 9.2 Å, Map 3 7.9 Å; Rad4, Rad33 and the Tfb1 PH domain placed by rigid-body docking of known structures or homology models
T2 construct: Rad3 (XPD homologue), subunit of yeast coreTFIIH; Stood in the assays as part of coreTFIIH; also called yeast homologue of XPD; source: purified from yeast as a subunit of coreTFIIH
T2 sequence (looked up): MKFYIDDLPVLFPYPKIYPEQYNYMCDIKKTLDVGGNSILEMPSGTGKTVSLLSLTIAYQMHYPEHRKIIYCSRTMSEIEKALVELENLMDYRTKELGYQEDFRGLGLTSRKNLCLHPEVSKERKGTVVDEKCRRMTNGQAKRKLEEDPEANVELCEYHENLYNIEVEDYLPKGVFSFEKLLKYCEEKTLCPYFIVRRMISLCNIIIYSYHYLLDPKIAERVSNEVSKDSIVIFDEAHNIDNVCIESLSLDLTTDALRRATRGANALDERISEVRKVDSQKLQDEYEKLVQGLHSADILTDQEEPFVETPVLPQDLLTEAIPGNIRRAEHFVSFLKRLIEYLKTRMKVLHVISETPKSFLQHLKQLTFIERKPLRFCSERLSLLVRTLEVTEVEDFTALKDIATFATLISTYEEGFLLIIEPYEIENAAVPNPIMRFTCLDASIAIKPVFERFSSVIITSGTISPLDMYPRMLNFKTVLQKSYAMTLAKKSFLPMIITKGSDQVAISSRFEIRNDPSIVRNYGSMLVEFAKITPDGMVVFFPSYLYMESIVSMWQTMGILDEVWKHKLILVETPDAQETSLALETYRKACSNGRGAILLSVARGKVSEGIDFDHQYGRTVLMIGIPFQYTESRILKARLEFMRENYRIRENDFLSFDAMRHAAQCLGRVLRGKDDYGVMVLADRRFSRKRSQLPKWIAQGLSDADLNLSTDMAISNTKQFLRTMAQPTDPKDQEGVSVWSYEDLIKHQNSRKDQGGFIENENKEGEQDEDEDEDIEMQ

[3] = target: T3, Rad4 (yeast, UniProt P14736 1-754); test: as above
T3 construct: Rad4 (XPC homologue), yeast; Stood in the assays as part of Rad4–Rad23–Rad33; written alone for the contacts of the subunit; also called yeast homologue of XPC; source: Hi5 insect cells, co-expressed with Rad23, purified as the Rad4–Rad23 complex
T3 sequence (looked up): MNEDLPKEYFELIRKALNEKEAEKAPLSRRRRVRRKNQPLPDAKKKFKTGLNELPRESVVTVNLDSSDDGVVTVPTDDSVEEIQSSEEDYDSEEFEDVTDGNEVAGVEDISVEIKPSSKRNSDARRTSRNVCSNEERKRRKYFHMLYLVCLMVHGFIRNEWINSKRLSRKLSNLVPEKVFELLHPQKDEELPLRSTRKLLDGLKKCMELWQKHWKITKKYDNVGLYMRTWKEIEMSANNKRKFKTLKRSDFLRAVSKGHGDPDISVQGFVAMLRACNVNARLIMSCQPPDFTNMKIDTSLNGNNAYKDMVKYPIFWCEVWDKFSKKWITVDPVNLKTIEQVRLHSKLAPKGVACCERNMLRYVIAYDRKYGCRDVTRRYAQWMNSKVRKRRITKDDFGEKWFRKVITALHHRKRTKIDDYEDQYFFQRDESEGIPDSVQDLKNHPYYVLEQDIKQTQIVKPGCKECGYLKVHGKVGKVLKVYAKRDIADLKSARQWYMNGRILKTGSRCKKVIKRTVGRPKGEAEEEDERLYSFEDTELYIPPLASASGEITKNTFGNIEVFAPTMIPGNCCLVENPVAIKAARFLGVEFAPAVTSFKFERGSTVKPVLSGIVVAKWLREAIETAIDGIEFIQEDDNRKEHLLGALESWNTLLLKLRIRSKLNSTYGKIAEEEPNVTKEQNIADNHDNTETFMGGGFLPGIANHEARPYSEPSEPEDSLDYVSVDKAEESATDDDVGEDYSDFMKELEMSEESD

Measured: binding result

B1: Tfb1 (natural protein, yeast, UniProt P32776 1-642, looked up)
chain: MSHSGAAIFEKVSGIIAINEDVSPAELTWRSTDGDKVHTVVLSTIDKLQATPASSEKMMLRLIGKVDESKKRKDNEGNEVVPKPQRHMFSFNNRTVMDNIKMTLQQIISRYKDADIYEEKRRREESAQHTETPMSSSSVTAGTPTPHLDTPQLNNGAPLINTAKLDDSLSKEKLLTNLKLQQSLLKGNKVLMKVFQETVINAGLPPSEFWSTRIPLLRAFALSTSQKVGPYNVLSTIKPVASSENKVNVNLSREKILNIFENYPIVKKAYTDNVPKNFKEPEFWARFFSSKLFRKLRGEKIMQNDRGDVIIDRYLTLDQEFDRKDDDMLLHPVKKIIDLDGNIQDDPVVRGNRPDFTMQPGVDINGNSDGTVDILKGMNRLSEKMIMALKNEYSRTNLQNKSNITNDEEDEDNDERNELKIDDLNESYKTNYAIIHLKRNAHEKTTDNDAKSSADSIKNADLKVSNQQMLQQLSLVMDNLINKLDLNQVVPNNEVSNKINKRVITAIKINAKQAKHNNVNSALGSFVDNTSQANELEVKSTLPIDLLESCRMLHTTCCEFLKHFYIHFQSGEQKQASTVKKLYNHLKDCIEKLNELFQDVLNGDGESMSNTCTAYLKPVLNSITLATHKYDEYFNEYNNNSN
notes: Tfb1 (p62 homologue), subunit of yeast coreTFIIH; Stood in the assays as part of coreTFIIH; also called yeast homologue of p62; source: purified from yeast as a subunit of coreTFIIH
binds: all assays above
